Values quoted from earlier work, collected in article PMC6558399.

Target: Galectin-1 (Homo sapiens) (UniProt P09382)

Kd: 7 µM
Substance: Galectin-1 (from UniProt P09382)
